Test results: the supplement of paper PMC11865577

Experiments:
Experiment in all cases: pull-down binding Z-score (relative to library population); higher = stronger binding
[1] = tested on: G-clamp-N3 (biotin conjugate); conditions: RNA library: Library-1 (pre-miRNA loops + repeats)
In short: (§1)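 The RNA library, end-labelled with Cy5 or Cy3, was heat-folded in phosphate/NaCl/KCl buffer, and 1 μg was incubated at 25 °C for 60 min with streptavidin beads carrying 100 pmol of biotin-conjugated small molecule. Hot SDS released the bound RNA, which was then hybridised to a DNA barcode microarray for 20 h at 55.5 °C. For scoring binding, signal from beads alone was subtracted, replicate barcoded probes were averaged after discarding the highest and lowest, and each value was turned into a Z-score from the library mean and standard deviation.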

[2] = tested on: TO-3-N3 (biotin conjugate); conditions: RNA library: Library-2
In short: as §1

[3] = tested on: TO-3-N3-2 (biotin conjugate); conditions: RNA library: Library-2
In short: as §1

TO-N3 (biotin conjugate) = conditions: RNA library: Library-2
In short: as §1

[4] = tested on: TO-N3-2 (biotin conjugate); conditions: RNA library: Library-2
In short: as §1

Q: For “ACUACUGUACUUUACAGCUAGCAGU [hsa-mir-301a]”, which “pull-down binding Z-score” value [1] is on record?
A: The value was 0.0373.

Q: What about the “pull-down binding Z-score” value [2] of the same sequence?
A: Its value is -0.475.

Q: And the “pull-down binding Z-score” value [3]?
A: Its value is -0.244.

Q: What about the “pull-down binding Z-score” value (TO-N3 (biotin conjugate)) of the same sequence?
A: Its value is 0.303.

Q: And the “pull-down binding Z-score” value [4]?
A: Its value is 1.09.

Q: ACUACUGUGCUCUGAGAAGCAGU [hsa-mir-301b] was tested. Which “pull-down binding Z-score” value [1] did it give?
A: Its value is 1.42.

Q: What about the “pull-down binding Z-score” value [2] of the same sequence?
A: The value was 0.599.

Q: What about the “pull-down binding Z-score” value [3] of the same sequence?
A: The value was -0.255.

Q: What about the “pull-down binding Z-score” value (TO-N3 (biotin conjugate)) of the same sequence?
A: The value was 0.643.

Q: And the “pull-down binding Z-score” value [4]?
A: The value was 0.325.

Q: For “ACUAGAUUUGAAUCCAGACCUUUAGU [hsa-mir-5584]”, which “pull-down binding Z-score” value [1] is on record?
A: The value was -0.461.

Q: And the “pull-down binding Z-score” value [2]?
A: Its value is 0.878.

Q: What about the “pull-down binding Z-score” value [3] of the same sequence?
A: Its value is 0.3.

Q: What about the “pull-down binding Z-score” value (TO-N3 (biotin conjugate)) of the same sequence?
A: Its value is 0.715.

Q: And the “pull-down binding Z-score” value [4]?
A: Its value is -0.111.

Q: With “ACUCCCAGAACUCAUUAAGUUGGUAGU [hsa-mir-1278]” as the sequence, how does the “pull-down binding Z-score” value [1] read?
A: Its value is -0.174.

Q: What about the “pull-down binding Z-score” value [2] of the same sequence?
A: The value was -0.0721.

Q: And the “pull-down binding Z-score” value [3]?
A: Its value is -0.184.

Q: What about the “pull-down binding Z-score” value (TO-N3 (biotin conjugate)) of the same sequence?
A: The value was -0.188.

Q: What about the “pull-down binding Z-score” value [4] of the same sequence?
A: Its value is -0.482.

Q: How did the “pull-down binding Z-score” value [1] turn out when ACUCCUAGGUCACGGAAGU [hsa-mir-6838] was run?
A: The value was -0.404.

Q: And the “pull-down binding Z-score” value [2]?
A: The value was -0.255.

Q: And the “pull-down binding Z-score” value [3]?
A: The value was -0.33.

Q: And the “pull-down binding Z-score” value (TO-N3 (biotin conjugate))?
A: The value was -0.23.

Q: What about the “pull-down binding Z-score” value [4] of the same sequence?
A: The value was -0.0545.

Q: For “ACUGAACCAGCUUCAAACAAGUUCACU [hsa-mir-653]”, which “pull-down binding Z-score” value [1] is on record?
A: Its value is -0.145.

Q: What about the “pull-down binding Z-score” value [2] of the same sequence?
A: Its value is -0.0896.

Q: And the “pull-down binding Z-score” value [3]?
A: Its value is 0.0338.

Q: What about the “pull-down binding Z-score” value (TO-N3 (biotin conjugate)) of the same sequence?
A: The value was -0.121.

Q: What about the “pull-down binding Z-score” value [4] of the same sequence?
A: Its value is -0.00579.

Q: How did the “pull-down binding Z-score” value [1] turn out when “ACUUAAGCACCAGGUAAAAUCUGGUGCUUAAGU [hsa-mir-4720]” was run?
A: The value was 0.139.

Q: And the “pull-down binding Z-score” value [2]?
A: Its value is -1.09.

Q: What about the “pull-down binding Z-score” value [3] of the same sequence?
A: Its value is -0.698.

Q: And the “pull-down binding Z-score” value (TO-N3 (biotin conjugate))?
A: Its value is -1.56.

Q: And the “pull-down binding Z-score” value [4]?
A: Its value is -1.69.

Q: For ACUUCAGAUGCUUCAUGACA [hsa-mir-6865], which “pull-down binding Z-score” value [1] is on record?
A: The value was -0.511.

Q: And the “pull-down binding Z-score” value [2]?
A: The value was -0.0886.

Q: What about the “pull-down binding Z-score” value [3] of the same sequence?
A: Its value is -0.117.

Q: What about the “pull-down binding Z-score” value (TO-N3 (biotin conjugate)) of the same sequence?
A: The value was -0.0452.

Q: And the “pull-down binding Z-score” value [4]?
A: The value was -0.0136.

Q: Which “pull-down binding Z-score” value [1] does the source give for ACUUUCACCAGAGAGCAGAAAGU [hsa-mir-371b] here?
A: The value was 0.341.

Q: And the “pull-down binding Z-score” value [2]?
A: Its value is -0.485.

Q: And the “pull-down binding Z-score” value [3]?
A: Its value is -0.564.

Q: And the “pull-down binding Z-score” value (TO-N3 (biotin conjugate))?
A: Its value is -0.636.

Q: And the “pull-down binding Z-score” value [4]?
A: Its value is -0.356.

Q: For “ACUUUCUGGUGCCAGAAUGAAAGU [hsa-mir-512-2_512-1]”, which “pull-down binding Z-score” value [1] is on record?
A: The value was -0.15.

Q: And the “pull-down binding Z-score” value [2]?
A: Its value is -0.391.

Q: And the “pull-down binding Z-score” value [3]?
A: Its value is -0.218.

Q: What about the “pull-down binding Z-score” value (TO-N3 (biotin conjugate)) of the same sequence?
A: Its value is -0.538.

Q: What about the “pull-down binding Z-score” value [4] of the same sequence?
A: Its value is 0.129.

Q: For “ACUUUCUGUUUGAAAGAAAACAAAGU [hsa-mir-519e]”, which “pull-down binding Z-score” value [1] is on record?
A: Its value is -0.167.

Q: What about the “pull-down binding Z-score” value [2] of the same sequence?
A: Its value is -0.798.

Q: What about the “pull-down binding Z-score” value [3] of the same sequence?
A: Its value is -0.409.

Q: What about the “pull-down binding Z-score” value (TO-N3 (biotin conjugate)) of the same sequence?
A: Its value is -0.981.

Q: What about the “pull-down binding Z-score” value [4] of the same sequence?
A: The value was -0.767.

Q: Which results are given for “ACUUUUUUUUUUUUUUUUUUUAAUGUUAAAAGU [hsa-mir-5588]”?
A: pull-down binding Z-score [1]: 0.463; pull-down binding Z-score [2]: -0.429; pull-down binding Z-score [3]: 0.823; pull-down binding Z-score (TO-N3 (biotin conjugate)): -0.82; pull-down binding Z-score [4]: -0.107

Q: For “AGAAAAUUUUUCUCCAAAGUUUUCU [hsa-mir-4659b]”, which “pull-down binding Z-score” value [1] is on record?
A: The value was -0.123.

Q: And the “pull-down binding Z-score” value [2]?
A: Its value is -0.634.

Q: What about the “pull-down binding Z-score” value [3] of the same sequence?
A: Its value is -0.443.

Q: And the “pull-down binding Z-score” value (TO-N3 (biotin conjugate))?
A: Its value is -1.06.

Q: What about the “pull-down binding Z-score” value [4] of the same sequence?
A: Its value is -1.66.

Q: With “AGAAACCUACUUAUUACAUAGUUUACAUAAGAAGCGUGAU [hsa-mir-1322]” as the sequence, how does the “pull-down binding Z-score” value [1] read?
A: Its value is -0.594.

Q: And the “pull-down binding Z-score” value [2]?
A: The value was -0.129.

Q: And the “pull-down binding Z-score” value [3]?
A: Its value is -0.0921.

Q: What about the “pull-down binding Z-score” value (TO-N3 (biotin conjugate)) of the same sequence?
A: Its value is 0.0288.

Q: What about the “pull-down binding Z-score” value [4] of the same sequence?
A: Its value is -0.00549.

Q: With “AGAAAGUGAAACACUAUUUUAGGUUUU [hsa-mir-4458]” as the sequence, how does the “pull-down binding Z-score” value [1] read?
A: The value was -0.486.

Q: What about the “pull-down binding Z-score” value [2] of the same sequence?
A: Its value is 0.0524.

Q: And the “pull-down binding Z-score” value [3]?
A: Its value is -0.00981.

Q: And the “pull-down binding Z-score” value (TO-N3 (biotin conjugate))?
A: Its value is -0.0974.

Q: And the “pull-down binding Z-score” value [4]?
A: The value was -0.248.

Q: What does the source list for “AGAAAUCAAGCUAUUUGCUAAAAGUUCU [hsa-mir-6844]”?
A: pull-down binding Z-score [1]: -0.369; pull-down binding Z-score [2]: -0.362; pull-down binding Z-score [3]: 0.246; pull-down binding Z-score (TO-N3 (biotin conjugate)): -0.316; pull-down binding Z-score [4]: -0.0563

Q: How did the “pull-down binding Z-score” value [1] turn out when “AGAACAGAUAUAUCCACAGUACACUUGGCUGUUCU [hsa-mir-4753]” was run?
A: Its value is 0.593.

Q: And the “pull-down binding Z-score” value [2]?
A: The value was -0.759.

Q: What about the “pull-down binding Z-score” value [3] of the same sequence?
A: Its value is -0.354.

Q: And the “pull-down binding Z-score” value (TO-N3 (biotin conjugate))?
A: Its value is -0.943.

Q: What about the “pull-down binding Z-score” value [4] of the same sequence?
A: The value was -0.635.

Q: Which “pull-down binding Z-score” value [1] does the source give for AGAACAUUCGUUCACUUUCCU [hsa-mir-6747] here?
A: The value was -1.1.

Q: And the “pull-down binding Z-score” value [2]?
A: Its value is -0.352.

Q: And the “pull-down binding Z-score” value [3]?
A: The value was -0.29.

Q: What about the “pull-down binding Z-score” value (TO-N3 (biotin conjugate)) of the same sequence?
A: The value was -0.404.

Q: And the “pull-down binding Z-score” value [4]?
A: The value was -0.376.
